Measurements as given in US20220348648A1 (Memorial Sloan Kettering, published 2022).

T1: endogenous human DLL3 on NCI-H82 cells (human, UniProt Q9NYJ7 27-618)
T1 sequence (looked up): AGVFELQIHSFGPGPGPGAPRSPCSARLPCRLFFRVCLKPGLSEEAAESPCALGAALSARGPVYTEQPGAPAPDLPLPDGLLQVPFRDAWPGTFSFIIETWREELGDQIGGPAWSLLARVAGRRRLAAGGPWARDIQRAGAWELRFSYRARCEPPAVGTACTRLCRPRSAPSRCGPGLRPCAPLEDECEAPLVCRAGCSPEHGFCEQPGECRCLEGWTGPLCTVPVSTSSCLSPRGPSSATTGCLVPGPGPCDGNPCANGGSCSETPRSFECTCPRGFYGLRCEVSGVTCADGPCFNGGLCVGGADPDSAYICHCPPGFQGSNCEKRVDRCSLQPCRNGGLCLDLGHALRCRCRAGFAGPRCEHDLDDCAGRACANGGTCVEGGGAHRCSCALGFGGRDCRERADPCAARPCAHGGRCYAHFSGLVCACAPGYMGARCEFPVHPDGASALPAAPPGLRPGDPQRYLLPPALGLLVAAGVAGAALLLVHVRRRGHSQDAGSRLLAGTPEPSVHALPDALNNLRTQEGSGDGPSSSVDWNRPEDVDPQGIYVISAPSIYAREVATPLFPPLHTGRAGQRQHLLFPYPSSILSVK

T2: DLL1 (UniProt O00548 18-545, limits assumed)
T2 sequence (looked up): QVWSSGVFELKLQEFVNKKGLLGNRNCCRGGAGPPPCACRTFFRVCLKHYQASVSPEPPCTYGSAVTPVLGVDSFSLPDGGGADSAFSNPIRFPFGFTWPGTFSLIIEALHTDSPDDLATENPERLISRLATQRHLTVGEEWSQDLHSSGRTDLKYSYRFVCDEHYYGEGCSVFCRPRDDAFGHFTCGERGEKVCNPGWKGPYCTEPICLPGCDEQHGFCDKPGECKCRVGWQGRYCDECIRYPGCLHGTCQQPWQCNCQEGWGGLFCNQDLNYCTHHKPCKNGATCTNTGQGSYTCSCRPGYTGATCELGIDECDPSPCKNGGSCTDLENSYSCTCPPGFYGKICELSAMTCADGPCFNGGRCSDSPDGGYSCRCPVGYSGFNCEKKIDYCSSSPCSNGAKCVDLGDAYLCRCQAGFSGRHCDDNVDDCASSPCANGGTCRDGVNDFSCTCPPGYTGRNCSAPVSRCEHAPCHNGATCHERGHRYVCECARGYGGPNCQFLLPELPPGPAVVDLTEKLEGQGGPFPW

T3: full-length human DLL3 on transfected HEK293 cells (human, UniProt Q9NYJ7 27-618)
T3 construct: also called 293 hDLL3
T3 sequence: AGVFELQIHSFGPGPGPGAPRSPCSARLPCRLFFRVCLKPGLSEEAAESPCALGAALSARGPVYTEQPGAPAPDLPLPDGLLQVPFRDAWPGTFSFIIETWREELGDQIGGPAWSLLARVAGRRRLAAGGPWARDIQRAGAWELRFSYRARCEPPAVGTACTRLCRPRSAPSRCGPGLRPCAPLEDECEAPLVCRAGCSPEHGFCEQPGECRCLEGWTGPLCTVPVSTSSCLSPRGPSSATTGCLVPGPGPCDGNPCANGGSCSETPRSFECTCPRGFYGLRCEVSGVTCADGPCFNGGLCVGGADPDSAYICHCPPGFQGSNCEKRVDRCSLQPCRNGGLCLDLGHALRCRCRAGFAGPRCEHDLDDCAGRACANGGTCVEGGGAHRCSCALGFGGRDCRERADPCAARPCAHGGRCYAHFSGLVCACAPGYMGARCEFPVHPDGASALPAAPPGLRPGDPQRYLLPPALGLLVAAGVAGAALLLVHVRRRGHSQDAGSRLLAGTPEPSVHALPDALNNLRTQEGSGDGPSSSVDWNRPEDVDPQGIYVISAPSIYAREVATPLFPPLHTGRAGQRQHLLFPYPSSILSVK

T4: full-length mouse DLL3 on transfected HEK293 cells (mouse, UniProt O88516 33-584)
T4 construct: also called 293 mDLL3
T4 sequence: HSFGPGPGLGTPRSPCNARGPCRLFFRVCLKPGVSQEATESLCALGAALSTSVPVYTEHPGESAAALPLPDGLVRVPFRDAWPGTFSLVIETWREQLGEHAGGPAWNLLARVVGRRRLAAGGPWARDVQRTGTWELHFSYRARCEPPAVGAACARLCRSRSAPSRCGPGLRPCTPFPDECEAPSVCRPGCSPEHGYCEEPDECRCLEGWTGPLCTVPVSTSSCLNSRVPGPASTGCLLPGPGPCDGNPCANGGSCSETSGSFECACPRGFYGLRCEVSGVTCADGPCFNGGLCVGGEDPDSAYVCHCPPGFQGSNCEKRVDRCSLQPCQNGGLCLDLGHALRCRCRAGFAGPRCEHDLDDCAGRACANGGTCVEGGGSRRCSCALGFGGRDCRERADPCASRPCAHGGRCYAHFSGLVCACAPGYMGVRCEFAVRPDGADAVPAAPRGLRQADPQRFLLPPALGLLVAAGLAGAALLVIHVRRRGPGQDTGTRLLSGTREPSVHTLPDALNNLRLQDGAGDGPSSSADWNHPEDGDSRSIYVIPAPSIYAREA

T5: full-length cynomologus DLL3 on transfected HEK293 cells (cynomologus, UniProt A0A2K5WSR1 27-585)
T5 construct: also called 293 cyno DLL3
T5 sequence: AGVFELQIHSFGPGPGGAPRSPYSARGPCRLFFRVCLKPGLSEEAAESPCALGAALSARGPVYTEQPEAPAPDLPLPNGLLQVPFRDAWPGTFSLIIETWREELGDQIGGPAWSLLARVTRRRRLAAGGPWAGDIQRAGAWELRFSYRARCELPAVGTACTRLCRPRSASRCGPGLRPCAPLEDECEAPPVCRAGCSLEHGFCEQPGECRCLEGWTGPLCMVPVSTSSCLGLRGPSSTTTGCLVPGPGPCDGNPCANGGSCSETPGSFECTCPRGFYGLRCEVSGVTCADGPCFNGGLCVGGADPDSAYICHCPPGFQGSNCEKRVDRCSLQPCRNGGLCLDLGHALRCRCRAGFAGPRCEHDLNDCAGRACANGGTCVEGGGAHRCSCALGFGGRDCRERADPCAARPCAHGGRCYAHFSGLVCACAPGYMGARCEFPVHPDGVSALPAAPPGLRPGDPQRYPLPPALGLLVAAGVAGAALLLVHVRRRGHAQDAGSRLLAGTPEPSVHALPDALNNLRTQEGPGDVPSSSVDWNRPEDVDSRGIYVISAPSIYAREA


How the values were obtained:
[1] = target: T1, endogenous human DLL3 on NCI-H82 cells; test: cell-based or functional assay
DLL1 = target: T2, DLL1; test: FIG. 7; assay not described
DLL4 = DLL4 (UniProt Q9NR61 27-524, limits assumed); test: FIG. 7; assay not described
Chain of DLL4 (Q9NR61 27-524 limits assumed): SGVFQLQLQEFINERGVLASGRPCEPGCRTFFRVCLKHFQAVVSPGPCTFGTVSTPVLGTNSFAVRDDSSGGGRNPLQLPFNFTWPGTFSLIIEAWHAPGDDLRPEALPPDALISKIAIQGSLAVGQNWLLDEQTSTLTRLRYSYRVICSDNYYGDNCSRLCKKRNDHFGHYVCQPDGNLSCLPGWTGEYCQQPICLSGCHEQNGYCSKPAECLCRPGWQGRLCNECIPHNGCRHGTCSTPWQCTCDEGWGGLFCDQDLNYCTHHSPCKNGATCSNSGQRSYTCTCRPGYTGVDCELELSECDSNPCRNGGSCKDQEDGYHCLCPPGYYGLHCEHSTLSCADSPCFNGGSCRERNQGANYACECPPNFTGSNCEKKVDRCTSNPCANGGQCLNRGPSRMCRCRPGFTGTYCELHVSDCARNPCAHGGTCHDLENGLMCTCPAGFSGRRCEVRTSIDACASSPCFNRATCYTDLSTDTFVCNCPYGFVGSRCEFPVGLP

[2] = target: T1, endogenous human DLL3 on NCI-H82 cells; test: flow cytometry, 10 µg/ml antibody on NCI-H82 cells (endogenous DLL3)
Description: (§1) The four monoclonal antibodies (6-G23-F, 2-C8-A, 7-I1-B and 10-O18-A) were tested for their ability to bind to mouse and cynomologus DLL3 as well as endogenous human DLL3 by flow cytometry. For this purpose, HEK293 cells were transfected with plasmid DNA encoding full-length human, mouse or cynomologus DLL3 and used in the experiment. Briefly 10⁶ transfected HEK293 cells or NCI-H82 primary cells were added in FACS buffer PBS 0.5% BSA to the wells of a 96 well U bottom plate and purified monoclonal added to 10 μg/ml. After 30 minutes incubation at 4° C. the cells were washed 3 times in FACS buffer and incubated with a PE labelled F(ab)2 anti-mouse IgG H and L 2nd stage. After another 30 minutes incubation at 4° C. the cells were washed three times in FACS buffer and analyzed on the flow cytometer. Data are presented at the ratio of the Mean Fluorescent Intensity for the monoclonal divided by the background staining with the 2nd stage. As shown in the Table below, all of the monoclonal antibodies cross reacted with cynomologus DLL3 and detected endogenous DLL3 on NCI H82 cells but only 6-G23-F and 7-I1-B bound to mouse DLL3.

[3] = target: T3, full-length human DLL3 on transfected …; test: flow cytometry, 10 µg/ml antibody on HEK293 cells transfected with full-length human DLL3
Description: as §1

[4] = target: T4, full-length mouse DLL3 on transfected …; test: flow cytometry, 10 µg/ml antibody on HEK293 cells transfected with full-length mouse DLL3
Description: as §1

[5] = target: T5, full-length cynomologus DLL3 on …; test: flow cytometry, 10 µg/ml antibody on HEK293 cells transfected with full-length cynomologus DLL3
Description: as §1

[6] = target: T1, endogenous human DLL3 on NCI-H82 cells; test: cell-based or functional assay; remark: listed apart in the source
[7] = target: T1, endogenous human DLL3 on NCI-H82 cells; test: cell-based or functional assay; remark: listed apart in the source

Binder	MFI Ratio (4° C. / 37° C. staining, 4/37 internalization assay on NCI-H82 cells) [1] [ratio]	binding result (DLL1)	binding result (DLL4)	ratio of the Mean Fluorescent Intensity for the monoclonal divided by the background staining with the 2nd stage [2] [ratio]	ratio of the Mean Fluorescent Intensity for the monoclonal divided by the background staining with the 2nd stage [3] [ratio]	ratio of the Mean Fluorescent Intensity for the monoclonal divided by the background staining with the 2nd stage [4] [ratio]	ratio of the Mean Fluorescent Intensity for the monoclonal divided by the background staining with the 2nd stage [5] [ratio]	Dy light Dy658 Fluorescence (% of the Control Reference Monoclonal Antibody), quenching internalization assay on NCI-H82 cells [6]	FAB ZAP % SC16 Max Killing (saporin Fab ZAP cytotoxicity on NCI-H82 cells) [7] [% SC16 Max Killing]
10-O18-A (antibody, V domains shown, Purified hybridoma monoclonal from Ablexis AlivaMAb Kappa mice; the antibody was captured on anti-mouse Fc sensors and detected with anti-mouse IgG / anti-mouse IgG1 reagents; also called 10-018-A; 10-O18-A (10 µg/ml)) VH: QVQLQESGPGLVKPSETLSLTCTVSGGSINSYYWSWIRQPPGKGLEWIGYIFYSGITNYNPSLKSRVTISLDTSKNQFSLKLSSVTAADTAVYYCARIGVAGFYFDYWGQGTLVTVSS VL: not shown	1.56	no binding	no binding	9.4	4.74	0.99	9.85	–	–
7-I1-B (antibody, V domains shown, Purified hybridoma monoclonal from Ablexis AlivaMAb Kappa mice; the antibody was captured on anti-mouse Fc sensors and detected with anti-mouse IgG / anti-mouse IgG1 reagents; also called 7-I1-B (10 µg/ml)) VH: EVQLVESGGGLVKPGGSLRLSCAASGFTFSNTWMSWVRQAPGKGLEWVGRIKSKSDGGTTDYAAPVKGRFTISRDDSKNTLYLQMNSLKTEDTAVYYCTQYYWNSFDYWGQGTLVTVSS VL: not shown	1.68	no binding	–	19.2	9.74	4.7	18.7	70.1 % of the Control Reference Monoclonal Antibody	97
6-G23-F (antibody, V domains shown, Purified hybridoma monoclonal from Ablexis AlivaMAb Kappa mice (human immunoglobulin repertoire); the antibody was captured on anti-mouse Fc sensors and detected with anti-mouse IgG / anti-mouse IgG1 reagents; also called 6-G23-F (10 µg/ml)) VH: QVQLVQSGAEVKKPGASVKVSCKASGYTFTSYYIHWVRQAPGQGLEWMGIIDPSDGSTNYAQKFQGRVTMTRDTSTSTVYMELSSLRSEDTAVYYCARDREYNYYGLDVWGQGTTVTVSS VL: not shown	1.67	no binding	no binding	11.1	6.33	3.97	13.1	76.5 % of the Control Reference Monoclonal Antibody	94
2-C8-A (antibody, V domains shown, Purified hybridoma monoclonal from Ablexis AlivaMAb Kappa mice; the antibody was captured on anti-mouse Fc sensors and detected with anti-mouse IgG / anti-mouse IgG1 reagents; also called 2-C8-A (10 µg/ml)) VH: EVQLVESGGGLVQPGGSQRLSCAASGFTFSSYWMNWVRQAPGKGLEWVANIKEDGSEKYYVDSVKGRFTISRDNAKNSLYLQMNSLRAEDTAVYYCARDPGWAPFDYWGQGTLVTVSS VL: DIQMSQSPSSLSASVGDRVTITCRASQGISNYLAWFQQKPGKAPKSLIYAASSLQSGVPSKFSGSGSGTDFTLAISSLQPEDFATYYCQQYNSFPYTFGQGTTLEIK	1.76	no binding	no binding	11.9	7.71	1.5	15	62.9 % of the Control Reference Monoclonal Antibody	89
